Some results are limits rather than exact numbers.

Our source for the activity (fidelity index) values is patent US20130115677.

Common to all, as to assay: cleavage_in_vitro
For series [1], the system named is T1, BspQI (Bacillus sphaericus).
T1 sequence: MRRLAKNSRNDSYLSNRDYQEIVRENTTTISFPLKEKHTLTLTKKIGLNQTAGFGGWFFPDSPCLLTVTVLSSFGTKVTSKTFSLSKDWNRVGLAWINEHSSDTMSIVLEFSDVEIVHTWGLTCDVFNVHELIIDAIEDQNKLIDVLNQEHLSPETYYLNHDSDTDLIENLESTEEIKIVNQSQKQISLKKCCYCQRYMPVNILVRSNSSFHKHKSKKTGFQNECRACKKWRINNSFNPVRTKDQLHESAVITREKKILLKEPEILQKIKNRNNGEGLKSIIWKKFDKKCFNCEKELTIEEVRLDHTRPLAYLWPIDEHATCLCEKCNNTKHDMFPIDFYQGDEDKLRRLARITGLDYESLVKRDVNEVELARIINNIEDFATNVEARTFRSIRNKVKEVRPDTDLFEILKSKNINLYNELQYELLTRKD
As to conditions: NEB4, 50 C, Mg2+.

Series [2] concerns the target T2, HpaI (Haemophilus parainfluenzae) (UniProt P29537).
T2 sequence: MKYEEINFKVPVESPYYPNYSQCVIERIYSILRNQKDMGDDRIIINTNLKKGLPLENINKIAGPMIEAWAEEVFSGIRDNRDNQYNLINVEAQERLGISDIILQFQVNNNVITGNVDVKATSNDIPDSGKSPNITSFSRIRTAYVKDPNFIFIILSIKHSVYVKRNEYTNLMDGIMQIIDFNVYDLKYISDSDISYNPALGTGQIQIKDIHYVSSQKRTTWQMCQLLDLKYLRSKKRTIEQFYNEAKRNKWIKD
As to conditions: NEB4, 37 C, Mg2+.

Series [3] has as its system T3, NcoI-HF A2T/R31A (Nocardia corallina).
T3 sequence: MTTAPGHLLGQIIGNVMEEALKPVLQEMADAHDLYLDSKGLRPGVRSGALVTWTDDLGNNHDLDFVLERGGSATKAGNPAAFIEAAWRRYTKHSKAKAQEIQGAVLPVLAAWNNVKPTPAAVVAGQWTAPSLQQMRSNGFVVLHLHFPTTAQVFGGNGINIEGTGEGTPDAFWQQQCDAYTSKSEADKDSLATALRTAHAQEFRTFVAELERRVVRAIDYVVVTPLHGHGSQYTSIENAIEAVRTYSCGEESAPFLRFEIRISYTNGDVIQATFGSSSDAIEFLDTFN
The note with it: NEB4, 37 C, Mg2+.

Series [4] has as its target EcoRI(K62A) K62A (Escherichia coli RY13) (UniProt P00642). As to conditions: NEB4, 37 C, Mg2+.

With lambda DNA, the activity (fidelity index) is 4 in series [1], 16 in series [2], greater than 64000 in series [3] and 32000 in series [4].
